Source: patent US20250296971A1, “GASTRIC INHIBITORY PEPTIDE RECEPTOR LIGANDS” (priority 2021, published 2025)
*1 amine or outer side, *2 acyl side, *3 side chain or, on linkers, in order; H or OH if unused. Bridges are numbered along the chain shown (N, C = ends). Primed or numbered codes have the meaning given here. [ ]: non-standard residue; d: D form. The star is where a group is joined. Ttds = 1,13-diamino-4,7,10-trioxatridecan-succinamic acid, NCCCOCCOCCOCCCNC(=O)CCC(=O)*; APAc″ = 4-amino-1-carboxymethylpiperidine, NC1CCN(CC(=O)*)CC1; DOTA = O=C(O)CN1CCN(CC(=O)O)CCN(CC(=O)*)CCN(CC(=O)O)CC1; Trp(5-Cl) = N[C@@H](Cc1c[nH]c2ccc(Cl)cc12)C(=O)O; Phe(3,4-Cl2) = N[C@@H](Cc1ccc(Cl)c(Cl)c1)C(=O)O; Pyridine(2,6-diCH2) = c1cc(C[*:1])nc(C[*:2])c1; Trp(6-F) = N[C@@H](Cc1c[nH]c2cc(F)ccc12)C(=O)O; 2Lut″ = 2,6-lutidylidene linking two thiols; Oic = O=C(O)[C@@H]1C[C@@H]2CCCC[C@@H]2N1; Phe(3-Cl) = N[C@@H](Cc1cccc(Cl)c1)C(=O)O; mXylylene = c1cc(C[*:1])cc(C[*:2])c1; Hyp = O=C(O)[C@@H]1C[C@@H](O)CN1; Cysteamide = C(CS[*:3])N[*:1]; Thp = NC1(C(=O)O)CCOCC1; Dap = NC[C@H](N)C(=O)O; Aib = CC(C)(N)C(=O)O; Sar = CNCC(=O)O

Key:
[1] = target: human Gastric Inhibitory Peptide Receptor (GIPR) (human) (UniProt P48546); test: FACS competition vs biotinylated GIP-057 on CHO-K1-hGIPR cells; category C: pIC50 6.1-7.0
Sequence of human Gastric Inhibitory Peptide Receptor (GIPR) (human) (P48546 22-466 limits assumed): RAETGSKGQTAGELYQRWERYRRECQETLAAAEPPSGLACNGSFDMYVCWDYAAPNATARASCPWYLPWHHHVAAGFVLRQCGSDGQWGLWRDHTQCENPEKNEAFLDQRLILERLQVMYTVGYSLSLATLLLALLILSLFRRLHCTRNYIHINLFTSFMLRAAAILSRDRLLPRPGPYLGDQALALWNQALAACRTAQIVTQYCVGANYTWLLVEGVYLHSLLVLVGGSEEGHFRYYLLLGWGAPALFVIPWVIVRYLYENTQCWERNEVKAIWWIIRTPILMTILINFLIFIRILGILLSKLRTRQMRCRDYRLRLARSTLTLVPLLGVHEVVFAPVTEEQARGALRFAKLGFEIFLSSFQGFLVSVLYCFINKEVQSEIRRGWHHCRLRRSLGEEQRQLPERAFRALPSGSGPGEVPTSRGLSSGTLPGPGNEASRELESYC

[2] = target: biotinylated extracellular domain of the human GIP receptor (bioGIPR) (human) (UniProt P48546); test: SPR single cycle kinetics, bioGIPR captured on chip; category B: pKD 8.1-9.0
Sequence of biotinylated extracellular domain of the human GIP receptor (bioGIPR) (human) (P48546 24-138 limits assumed): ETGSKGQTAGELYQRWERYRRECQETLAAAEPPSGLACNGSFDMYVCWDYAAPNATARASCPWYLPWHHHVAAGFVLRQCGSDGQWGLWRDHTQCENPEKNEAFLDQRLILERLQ

[3] = target: biotinylated extracellular domain of the human GIP receptor (bioGIPR) (human) (UniProt P48546); test: SPR single cycle kinetics, bioGIPR captured on chip; category A: t1/2 >15 min
[4] = target: human Gastric Inhibitory Peptide Receptor (GIPR) (human) (UniProt P48546); test: FACS competition vs biotinylated GIP-057 on CHO-K1-hGIPR cells; category A: pIC50 >8.0
[5] = target: human Gastric Inhibitory Peptide Receptor (human) (UniProt P48546); test: FACS competition with GIP-057 on CHO-K1-hGIPR cells; pIC50 category A: >8.0
Sequence of human Gastric Inhibitory Peptide Receptor (human) (P48546 22-466 limits assumed): as the sequence (P48546 22-466 limits assumed) above

[6] = target: human Gastric Inhibitory Peptide Receptor (GIPR) (human) (UniProt P48546); test: FACS competition vs biotinylated GIP-057 on CHO-K1-hGIPR cells; category D: pIC50 <=6.0

H-Met-Tyr-Asp-Trp-Trp-Pro-Glu-Leu-[Cys(2MeBn)-Ala-Leu-Ile-Cys]-NH2 (peptide)
pIC50 [1]: 6.1 to 7 pic50

{DOTA-Ttds}-D[Trp(6-F)]WPE[dL]C[Aib]LI[Cysteamide] (linker 7-11 via mXylylene) [DOTA-Ttds-Asp-6Fw-Trp-Pro-Glu-leu-[Cys(3MeBn)-Aib-Leu-Ile-AET]]
pIC50 [1]: 6.1 to 7 pic50

B1: Ac-Asp-Trp-5Clw-Hyp-Lys-leu-[Cys(2Lut)-Thp-Leu-Ile-Cys]-NH2 (peptide)
peptide: Ac-DW[Trp(5-Cl)][Hyp]K[dL]C[Thp]LIC-NH2
modifications: linker 7-11 via Pyridine(2,6-diCH2)
SMILES: CC[C@H](C)[C@@H]1NC(=O)[C@H](CC(C)C)NC(=O)C2(CCOCC2)NC(=O)[C@@H](NC(=O)[C@@H](CC(C)C)NC(=O)[C@H](CCCCN)NC(=O)[C@@H]2C[C@@H](O)CN2C(=O)[C@H](Cc2c[nH]c3ccc(Cl)cc23)NC(=O)[C@H](Cc2c[nH]c3ccccc23)NC(=O)[C@H](CC(=O)O)NC(C)=O)CSCc2cccc(n2)CSC[C@@H](C(N)=O)NC1=O
pKD [2]: 8.1 to 9 pkd
t1/2 [3]: > 15 min
pIC50 [4]: > 8 pic50

B2: DOTA-APAc-Asp-Trp-5Clw-Hyp-Glu-leu-[Dap(2Lut)-Thp-Leu-Ile-AET] (peptide)
peptide: {DOTA-APAc″}-DW[Trp(5-Cl)][Hyp]E[dL][Dap][Thp]LI[Cysteamide]
modifications: linker (positions not given here) via Pyridine(2,6-diCH2); not fully specified (bridges); printed as DOTA-APAc-Asp-Trp-5Clw-Hyp-Glu-leu-[Dap(2Lut)-Thp-Leu-Ile-AET]
pIC50 [5]: > 8 pic50
pKD [2]: 8.1 to 9 pkd
t1/2 [3]: > 15 min

B3: Ac-Asp-Trp-5Clw-Hyp-His-leu-[Cys(2Lut)-Thp-Leu-Ile-Cys]-NH2 (peptide)
peptide: Ac-DW[Trp(5-Cl)][Hyp]H[dL]C[Thp]LIC-NH2
modifications: linker 7-11 via Pyridine(2,6-diCH2)
SMILES: CC[C@H](C)[C@@H]1NC(=O)[C@H](CC(C)C)NC(=O)C2(CCOCC2)NC(=O)[C@@H](NC(=O)[C@@H](CC(C)C)NC(=O)[C@H](Cc2c[nH]cn2)NC(=O)[C@@H]2C[C@@H](O)CN2C(=O)[C@H](Cc2c[nH]c3ccc(Cl)cc23)NC(=O)[C@H](Cc2c[nH]c3ccccc23)NC(=O)[C@H](CC(=O)O)NC(C)=O)CSCc2cccc(n2)CSC[C@@H](C(N)=O)NC1=O
pKD [2]: 8.1 to 9 pkd
t1/2 [3]: > 15 min
pIC50 [4]: > 8 pic50

Ac-DW[Phe(3-Cl)][Hyp]E[dL]C[Thp]LIC-NH2 (linker 7-11 via 2Lut″) [Ac-Asp-Trp-Mcf-Hyp-Glu-leu-[Cys(2Lut)-Thp-Leu-Ile-Cys]-NH2]
pIC50 [1]: 6.1 to 7 pic50

B4: Ac-Asp-Eaa-Eaa-Oic-Glu-leu-[Cys(2Lut)-Thp-Leu-Ile-Cys]-NH2 (peptide)
peptide: Ac-D[Phe(3,4-Cl2)][Phe(3,4-Cl2)][Oic]E[dL]C[Thp]LIC-NH2
modifications: linker 7-11 via Pyridine(2,6-diCH2)
SMILES: CC[C@H](C)[C@@H]1NC(=O)[C@H](CC(C)C)NC(=O)C2(CCOCC2)NC(=O)[C@@H](NC(=O)[C@@H](CC(C)C)NC(=O)[C@H](CCC(=O)O)NC(=O)[C@@H]2C[C@@H]3CCCC[C@@H]3N2C(=O)[C@H](Cc2ccc(Cl)c(Cl)c2)NC(=O)[C@H](Cc2ccc(Cl)c(Cl)c2)NC(=O)[C@H](CC(=O)O)NC(C)=O)CSCc2cccc(n2)CSC[C@@H](C(N)=O)NC1=O
pIC50 [6]: < 6 pic50

B5: Ac-Asp-Eaa-Eaa-Nmg-Glu-leu-[Cys(2Lut)-Thp-Leu-Ile-Cys]-NH2 (peptide)
peptide: Ac-D[Phe(3,4-Cl2)][Phe(3,4-Cl2)][Sar]E[dL]C[Thp]LIC-NH2
modifications: linker 7-11 via Pyridine(2,6-diCH2)
SMILES: CC[C@H](C)[C@@H]1NC(=O)[C@H](CC(C)C)NC(=O)C2(CCOCC2)NC(=O)[C@@H](NC(=O)[C@@H](CC(C)C)NC(=O)[C@H](CCC(=O)O)NC(=O)CN(C)C(=O)[C@H](Cc2ccc(Cl)c(Cl)c2)NC(=O)[C@H](Cc2ccc(Cl)c(Cl)c2)NC(=O)[C@H](CC(=O)O)NC(C)=O)CSCc2cccc(n2)CSC[C@@H](C(N)=O)NC1=O
pIC50 [6]: < 6 pic50

B6: Ac-Asp-Trp-5Clw-Hyp-Glu-leu-[Cys(2Lut)-Thp-Leu-Trp-Cys]-NH2 (peptide)
peptide: Ac-DW[Trp(5-Cl)][Hyp]E[dL]C[Thp]LWC-NH2
modifications: linker 7-11 via Pyridine(2,6-diCH2)
SMILES: CC(=O)N[C@@H](CC(=O)O)C(=O)N[C@@H](Cc1c[nH]c2ccccc12)C(=O)N[C@@H](Cc1c[nH]c2ccc(Cl)cc12)C(=O)N1C[C@H](O)C[C@H]1C(=O)N[C@@H](CCC(=O)O)C(=O)N[C@H](CC(C)C)C(=O)N[C@H]1CSCc2cccc(n2)CSC[C@@H](C(N)=O)NC(=O)[C@H](Cc2c[nH]c3ccccc23)NC(=O)[C@H](CC(C)C)NC(=O)C2(CCOCC2)NC1=O
pIC50 [6]: < 6 pic50

B7: Ac-Asp-Trp-5Clw-Hyp-Glu-leu-[Cys(2Lut)-Thp-Leu-Ser-Cys]-NH2 (peptide)
peptide: Ac-DW[Trp(5-Cl)][Hyp]E[dL]C[Thp]LSC-NH2
modifications: linker 7-11 via Pyridine(2,6-diCH2)
SMILES: CC(=O)N[C@@H](CC(=O)O)C(=O)N[C@@H](Cc1c[nH]c2ccccc12)C(=O)N[C@@H](Cc1c[nH]c2ccc(Cl)cc12)C(=O)N1C[C@H](O)C[C@H]1C(=O)N[C@@H](CCC(=O)O)C(=O)N[C@H](CC(C)C)C(=O)N[C@H]1CSCc2cccc(n2)CSC[C@@H](C(N)=O)NC(=O)[C@H](CO)NC(=O)[C@H](CC(C)C)NC(=O)C2(CCOCC2)NC1=O
pIC50 [1]: 6.1 to 7 pic50
